For one molecule, Kd and stoichiometry N results are on record in article PMC10093686, “Structural insights into acetylated histone ligand recognition by the BDP1 bromodomain of Plasmodium falciparum” (International journal of biological macromolecules, 2022).

The target of this experiment is PfBDP1-BRD (residues 303–488 or 333–456), bromodomain of P. falciparum Bromodomain Protein 1, as used in ITC (P. falciparum) (UniProt Q8IJ72). As to the kind of experiment: ITC; histone peptide (2.5–5.0 mM) in the syringe, PfBDP1-BRD (303–488 or 333–456; 100–200 μM) in the sample cell; 5°C; 20 mM sodium phosphate pH 7.5, 150 mM NaCl, 1 mM TCEP; 1:1 binding model, single set of identical sites.

No end group written: not given here.

Broadly, the Kd is a measure of binding affinity in units of concentration. A word on the stoichiometry N: it is a count of units in the complex or per binding partner. SGK(Ac)GPAQK(Ac)SQAAK(Ac)K(Ac)TAGK(Ac)TLGPR [H2B.ZK3acK8acK13acK14acK18ac histone peptide, penta-acetylated histone H2B.Z] returned a Kd of 1300 µM and a stoichiometry N of 1.
